# Experimental data published in patent publication US20250152704A1 (PARAGON THERAPEUTICS, published 2025).
# T1: mouse FcRn (mouse, UniProt Q61559 22-297; P01887 21-119, limits assumed)
# T1 sequence (looked up) 1: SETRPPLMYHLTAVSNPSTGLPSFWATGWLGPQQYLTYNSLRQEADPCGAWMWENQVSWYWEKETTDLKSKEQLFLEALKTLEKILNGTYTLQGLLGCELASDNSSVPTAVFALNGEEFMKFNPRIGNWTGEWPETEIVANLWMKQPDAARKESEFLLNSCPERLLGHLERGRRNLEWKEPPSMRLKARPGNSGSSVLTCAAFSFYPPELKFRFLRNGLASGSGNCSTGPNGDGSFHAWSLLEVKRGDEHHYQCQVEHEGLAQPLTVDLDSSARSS
# T1 sequence (looked up) 2: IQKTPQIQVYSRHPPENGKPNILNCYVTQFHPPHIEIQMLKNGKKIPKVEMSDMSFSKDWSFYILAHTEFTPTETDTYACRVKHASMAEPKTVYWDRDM
# T2: rat FcRn (rat, UniProt P13599 23-298; P07151 21-119, limits assumed)
# T2 sequence (looked up) 1: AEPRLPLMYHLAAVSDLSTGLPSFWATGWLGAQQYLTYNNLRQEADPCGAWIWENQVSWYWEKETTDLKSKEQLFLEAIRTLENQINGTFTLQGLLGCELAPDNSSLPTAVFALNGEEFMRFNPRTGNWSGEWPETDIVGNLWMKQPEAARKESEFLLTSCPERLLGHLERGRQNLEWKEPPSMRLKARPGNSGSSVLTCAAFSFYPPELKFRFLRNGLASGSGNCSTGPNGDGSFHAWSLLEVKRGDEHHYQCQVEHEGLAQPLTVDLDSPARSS
# T2 sequence (looked up) 2: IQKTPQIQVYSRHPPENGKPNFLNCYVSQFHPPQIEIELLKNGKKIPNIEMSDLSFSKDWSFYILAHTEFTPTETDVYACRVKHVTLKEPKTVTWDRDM
# Experiments:
# [1] = biological target: T3, Recombinant in-house Human FcRn protein (human, UniProt P55899 24-297; P61769 21-119, limits assumed); experiment: SPR, pH 7.4
# T3 construct: also called huFCRN; HuFcRn
# cynomolgus monkey FcRn [2] = biological target: T4, cynomolgus monkey FcRn (cynomolgus monkey, UniProt Q8SPV9 24-297; Q8SPW0 21-119, limits assumed); experiment: SPR, pH 7.4
# T4 construct: also called cynoFcRn
# mouse FcRn [3] = biological target: T1, mouse FcRn; experiment: SPR, pH 7.4
# rat FcRn [4] = biological target: T2, rat FcRn; experiment: SPR, pH 7.4
# [5] = biological target: T3, Recombinant in-house Human FcRn protein; experiment: competitive binding ELISA, pH 6.0, in triplicate; competitor IgG
# [6] = biological target: T3, Recombinant in-house Human FcRn protein; experiment: competitive binding ELISA, pH 6.0; competitor Efgartigimod (Fc Fragment 1)
# [7] = biological target: T3, Recombinant in-house Human FcRn protein; experiment: SPR, pH 6
# cynomolgus monkey FcRn [8] = biological target: T4, cynomolgus monkey FcRn; experiment: SPR, pH 6
# mouse FcRn [9] = biological target: T1, mouse FcRn; experiment: SPR, pH 6
# rat FcRn [10] = biological target: T2, rat FcRn; experiment: SPR, pH 6
Kd [1] [nM],Kd (cynomolgus monkey FcRn [2]) [nM],Kd (mouse FcRn [3]) [nM],Kd (rat FcRn [4]) [nM],IC50 [5] [nM],IC50 [6] [nM],Kd [7] [nM],Kd (cynomolgus monkey FcRn [8]) [nM],Kd (mouse FcRn [9]) [nM],Kd (rat FcRn [10]) [nM],Binder
239,1370,2.8,12.3,2.85,4.82,8.8,39.7,0.269,3.71,"Fc Fragment 1 (other, Human IgG1 Fc fragment (EU 221-446) with the named substitutions already in the entry; also called Efgartigimod (Efgart); Efgartigimod without the C-terminal lysine) DKTHTCPPCPAPELLGGPSVFLFPPKPKDTLYITREPEVTCVVVDVSHEDPEVKFNWYVDGVEVHNAKTKPREEQYNSTYRVVSVLTVLHQDWLNGKEYKCKVSNKALPAPIEKTISKAKGQPREPQVYTLPPSRDELTKNQVSLTCLVKGFYPSDIAVEWESNGQPENNYKTTPPVLDSDGSFFLYSKLTVDKSRWQQGNVFSCSVMHEALKFHYTQKSLSLSPG"
269,1700,4.05,14.7,1.51,6.47,8.41,38.6,0.248,2.9,"Fc Fragment 11 (other, Human IgG1 Fc fragment; substitutions already in the entry) DKTHTCPPCPAPELLGGPSVFLFPPKPKDTLYITREPEVTCVVVDVSHEDPEVKFNWYVDGVEVHNAKTKPREEQYNSTYRVVSVLTVLHQDWLNGKEYKCKVSNKALPAPIEKTISKAKGQPREPQVYTLPPSRDELTKNQVSLTCLVKGFYPSDIAVEWESNGQPENNYKTTPPVLDSDGSFFLYSKLTVDKSRWQQGNVFSCSVLHEALHFHYTQKSLSLSPG"
259,1540,2.55,11.8,1.31,4.09,8.05,36.2,0.182,3.5,"Fc Fragment 2 (other, Human IgG1 Fc fragment; substitutions already in the entry; also called Fc195) DKTHTCPPCPAPELLGGPSVFLFPPKPKDTLYITREPEVTCVVVDVSHEDPEVKFNWYVDGVEVHNAKTKPREEQYNSTYRVVSVLTVLHQDWLNGKEYKCKVSNKALPAPIEKTISKAKGQPREPQVYTLPPSRDELTKNQVSLTCLVKGFYPSDIAVEWESNGQPENNYKTTPPVLDSDGSFFLYSKLTVDKSRWQQGNVFSCSVLHEALKFHYTQKSLSLSPG"
290,1550,,,5.18,,51.7,372,,,"Fc Fragment 20 (other, Human IgG1 Fc fragment; substitutions already in the entry) DKTHTCPPCPAPELLGGPSVFLFPPKPKDTLYITREPEVTCVVVDVSHEDPEVKFNWYVDGVEVHNAKTKPREEQYNSTYRVVSVLTVDHKDWLNGKEYKCKVSNKALPAPIEKTISKAKGQPREPQVYTLPPSRDELTKNQVSLTCLVKGFYPSDIAVEWESNGQPENNYKTTPPVLDSDGSFFLYSKLTVDKSRWQQGNVFSCSVMHEALKYHYTQKSLSLSPG"
291,1430,,,30.3,,76.4,60.8,,,"Fc Fragment 15 (other, Human IgG1 Fc fragment; substitutions already in the entry) DKTHTCPPCPAPELLGGPSVFLFPPKPKDTLYITREPEVTCVVVDVSHEDPEVKFNWYVDGVEVHNAKTKPREEQYNSTYRVVSVLTVDHQDWLNGKEYKCKVSNKALPAPIEKTISKAKGQPREPQVYTLPPSRDELTKNQVSLTCLVKGFYPSDIAVEWESNGQPENNYKTTPPVLDSDGSFFLYSKLTVDKSRWQQGNVFSCSVMHEALKFHYTQKSLSLSPG"
371,1680,,,8.45,,,47.2,,,"Fc Fragment 16 (other, Human IgG1 Fc fragment; substitutions already in the entry) DKTHTCPPCPAPELLGGPSVFLFPPKPKDTLYITREPEVTCVVVDVSHEDPEVKFNWYVDGVEVHNAKTKPREEQYNSTYRVVSVLTVDHQDWLNGKEYKCKVSNKALPAPIEKTISKAKGQPREPQVYTLPPSRDELTKNQVSLTCLVKGFYPSDIAVEWESNGQPENNYKTTPPVLDSDGSFFLYSKLTVDKSRWQQGNVFSCSVMHEALKYHYTQKSLSLSPG"
252,1430,,,7.98,,80.4,1250,,,"Fc Fragment 19 (other, Human IgG1 Fc fragment; substitutions already in the entry) DKTHTCPPCPAPELLGGPSVFLFPPKPKDTLYITREPEVTCVVVDVSHEDPEVKFNWYVDGVEVHNAKTKPREEQYNSTYRVVSVLTVDHKDWLNGKEYKCKVSNKALPAPIEKTISKAKGQPREPQVYTLPPSRDELTKNQVSLTCLVKGFYPSDIAVEWESNGQPENNYKTTPPVLDSDGSFFLYSKLTVDKSRWQQGNVFSCSVMHEALKFHYTQKSLSLSPG"
166,900,2.83,17.3,1.41,3.73,7.15,30.1,0.194,5.41,"Fc Fragment 12 (other, Human IgG1 Fc fragment; substitutions already in the entry) DKTHTCPPCPAPELLGGPSVFLFPPKPKDTLYITREPEVTCVVVDVSHEDPEVKFNWYVDGVEVHNAKTKPREEQYNSTYRVVSVLTVLHQDWLNGKEYKCKVSNKALPAPIEKTISKAKGQPREPQVYTLPPSRDELTKNQVSLTCLVKGFYPSDIAVEWESNGQPENNYKTTPPVLDSDGSFFLYSKLTVDKSRWQQGNVFSCSVMHEALRYHYTQKSLSLSPG"
210,948,2.38,14.9,0.77,4.59,6.74,28.9,0.172,4.25,"Fc Fragment 3 (other, Human IgG1 Fc fragment; substitutions already in the entry; also called Fc197) DKTHTCPPCPAPELLGGPSVFLFPPKPKDTLYITREPEVTCVVVDVSHEDPEVKFNWYVDGVEVHNAKTKPREEQYNSTYRVVSVLTVLHQDWLNGKEYKCKVSNKALPAPIEKTISKAKGQPREPQVYTLPPSRDELTKNQVSLTCLVKGFYPSDIAVEWESNGQPENNYKTTPPVLDSDGSFFLYSKLTVDKSRWQQGNVFSCSVMHEALKYHYTQKSLSLSPG"
293,2190,,,10.2,,68.3,62.1,,,"Fc Fragment 17 (other, Human IgG1 Fc fragment; substitutions already in the entry) DKTHTCPPCPAPELLGGPSVFLFPPKPKDTLYITREPEVTCVVVDVSHEDPEVKFNWYVDGVEVHNAKTKPREEQYNSTYRVVSVLTVDHQDWLNGKEYKCKVSNKALPAPIEKTISKAKGQPREPQVYTLPPSRDELTKNQVSLTCLVKGFYPSDIAVEWESNGQPENNYKTTPPVLDSDGSFFLYSKLTVDKSRWQQGNVFSCSVLHEALKFHYTQKSLSLSPG"
169,725,1.53,11.5,,5.03,6.62,28.6,0.143,3.49,"Fc Fragment 10 (other, Human IgG1 Fc fragment; substitutions already in the entry) DKTHTCPPCPAPELLGGPSVFLFPPKPKDTLYITREPEVTCVVVDVSHEDPEVKFNWYVDGVEVHNAKTKPREEQYNSTYRVVSVLTVLHQDWLNGKEYKCKVSNKALPAPIEKTISKAKGQPREPQVYTLPPSRDELTKNQVSLTCLVKGFYPSDIAVEWESNGQPENNYKTTPPVLDSDGSFFLYSKLTVDKSRWQQGNVFSCSVLHEALKYHYTQKSLSLSPG"
262,2110,,,6.91,,58.7,51.2,,,"Fc Fragment 18 (other, Human IgG1 Fc fragment; substitutions already in the entry) DKTHTCPPCPAPELLGGPSVFLFPPKPKDTLYITREPEVTCVVVDVSHEDPEVKFNWYVDGVEVHNAKTKPREEQYNSTYRVVSVLTVDHQDWLNGKEYKCKVSNKALPAPIEKTISKAKGQPREPQVYTLPPSRDELTKNQVSLTCLVKGFYPSDIAVEWESNGQPENNYKTTPPVLDSDGSFFLYSKLTVDKSRWQQGNVFSCSVLHEALKYHYTQKSLSLSPG"
